These results are taken from paper PMC6776472 (Biochemistry, 2018).

In one experiment the target is JNK1 (UniProt P45983 1-427). Put plainly: ITC. On the technique in general: ITC needs no label: the signal is the heat of the interaction.
Experiment [1] concerns the target p38α (unphosphorylated, recombinant) (UniProt Q16539 1-360). Put plainly: fluorescence polarisation. Background: Fluorescence polarisation rises when a labelled molecule tumbles more slowly, as on binding a larger partner.
The target in the next experiment is ERK2 (UniProt P28482 1-360). Put plainly: fluorescence polarisation.

No end group written: not given here.

ERK2, sequence (P28482 whole entry): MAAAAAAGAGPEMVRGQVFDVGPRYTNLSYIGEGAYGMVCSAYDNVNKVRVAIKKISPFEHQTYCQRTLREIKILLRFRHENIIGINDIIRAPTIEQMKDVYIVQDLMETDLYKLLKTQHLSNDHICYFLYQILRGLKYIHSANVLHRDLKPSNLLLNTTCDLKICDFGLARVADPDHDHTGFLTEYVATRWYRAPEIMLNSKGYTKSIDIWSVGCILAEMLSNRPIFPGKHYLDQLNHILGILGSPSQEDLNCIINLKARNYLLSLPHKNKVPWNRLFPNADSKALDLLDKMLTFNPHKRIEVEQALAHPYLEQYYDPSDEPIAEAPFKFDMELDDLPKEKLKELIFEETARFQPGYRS
p38α (unphosphorylated, recombinant), sequence (Q16539 whole entry): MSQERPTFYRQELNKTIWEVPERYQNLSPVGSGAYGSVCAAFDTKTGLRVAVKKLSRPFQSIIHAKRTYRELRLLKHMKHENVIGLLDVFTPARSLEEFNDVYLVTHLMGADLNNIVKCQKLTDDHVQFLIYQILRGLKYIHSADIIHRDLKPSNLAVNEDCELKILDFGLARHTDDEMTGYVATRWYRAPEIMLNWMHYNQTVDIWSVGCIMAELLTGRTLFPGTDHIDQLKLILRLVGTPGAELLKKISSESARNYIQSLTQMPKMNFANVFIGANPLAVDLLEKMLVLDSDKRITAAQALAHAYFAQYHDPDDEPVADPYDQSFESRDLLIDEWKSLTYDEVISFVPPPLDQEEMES
JNK1, sequence (P45983 whole entry): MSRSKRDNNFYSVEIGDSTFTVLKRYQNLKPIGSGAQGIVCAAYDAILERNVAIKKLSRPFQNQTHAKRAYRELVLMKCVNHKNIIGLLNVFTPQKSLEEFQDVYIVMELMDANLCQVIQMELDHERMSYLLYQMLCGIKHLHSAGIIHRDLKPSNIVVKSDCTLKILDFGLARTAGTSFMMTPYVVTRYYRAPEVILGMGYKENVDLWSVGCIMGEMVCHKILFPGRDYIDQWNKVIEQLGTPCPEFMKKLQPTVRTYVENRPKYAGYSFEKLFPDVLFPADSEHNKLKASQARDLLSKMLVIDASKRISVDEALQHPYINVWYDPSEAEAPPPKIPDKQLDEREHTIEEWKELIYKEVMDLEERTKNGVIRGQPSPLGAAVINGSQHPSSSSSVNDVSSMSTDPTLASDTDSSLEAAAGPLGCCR

B1: pepMKK6mb (designed binder)
chain: RDLEVVAATPTSLLISWDAPAVTVRYYRITYGETGGNSPVQEFTVPGSKSTATISGLKPGVDYTITVYAVTGRPGLKIPSKPISINYRTEI
Regarding B1, in the experiment with JNK1, the Kd (in general, the concentration at which binding is half-saturated) was over 100 µM.

B2: MKK6-derived 12-residue peptide, TAMRA-labeled (peptide)
peptide: {TAMRA}-GKKRNPGLKIPK
In the case of B2, in experiment [1], the Kd was 3.9 µM. In addition, the binding result with ERK2 is “binds”.
